Measurements reported in patent US9580733B2, “Methods of producing 6-carbon chemicals via methyl-ester shielded carbon chain elongation” (INVISTA North America S.á r.l., priority 2012, dated 2017).

B1: SEQ ID NO 5: Segniliparus rugosus carboxylate reductase (Genbank Accession No. EFV11917.1) (protein, listed as Segniliparus rugosus)
chain: MGDGEERAKRFFQRIGELSATDPQFAAAAPDPAVVEAVSDPSLSFTRYLDTLMRGYAERPALAHRVGAGYETISYGELWARVGAIAAAWQADGLAPGDFVATVGFTSPDYVAVDLAAARSGLVSVPLQAGASLAQLVGILEETEPKVLAASASSLEGAVACALAAPSVQRLVVFDLRGPDASESAADERRGALADAEEQLARAGRAVVVETLADLAARGEALPEAPLFEPAEGEDPLALLIYTSGSTGAPKGAMYSQRLVSQLWGRTPVVPGMPNISLHYMPLSHSYGRAVLAGALSAGGTAHFTANSDLSTLFEDIALARPTFLALVPRVCEMLFQESQRGQDVAELRERVLGGRLLVAVCGSAPLSPEMRAFMEEVLGFPLLDGYGSTEALGVMRNGIIQRPPVIDYKLVDVPELGYRTTDKPYPRGELCIRSTSLISGYYKRPEITAEVFDAQGYYKTGDVMAEIAPDHLVYVDRSKNVLKLSQGEFVAVAKLEAAYGTSPYVKQIFVYGNSERSFLLAVVVPNAEVLGARDQEEAKPLIAASLQKIAKEAGLQSYEVPRDFLIETEPFTTQNGLLSEVGKLLRPKLKARYGEALEARYDEIAHGQADELRALRDGAGQRPVVETVVRAAVAISGSEGAEVGPEANFADLGGDSLSALSLANLLHDVFEVEVPVRIIIGPTASLAGIAKHIEAERAGASAPTAASVHGAGATRIRASELTLEKFLPEDLLAAAKGLPAADQVRTVLLTGANGWLGRFLALEQLERLARSGQDGGKLICLVRGKDAAAARRRIEETLGTDPALAARFAELAEGRLEVVPGDVGEPKFGLDDAAWDRLAEEVDVIVHPAALVNHVLPYHQLFGPNVVGTAEIIRLAITAKRKPVTYLSTVAVAAGVEPSSFEEDGDIRAVVPERPLGDGYANGYGNSKWAGEVLLREAHELVGLPVAVFRSDMILAHTRYTGQLNVPDQFTRLVLSLLATGIAPKSFYQQGAAGERQRAHYDGIPVDFTAEAITTLGAEPSWFDGGAGFRSFDVFNPHHDGVGLDEFVDWLIEAGHPISRIDDHKEWFARFETAVRGLPEAQRQHSLLPLLRAYSFPHPPVDGSVYPTGKFQGAVKAAQVGSDHDVPHLGKALIVKYADDLKALGLL
B2: SEQ ID NO 7: Segniliparus rotundus carboxylate reductase (Genbank Accession No. ADG98140.1); in Example 2 the same label is printed for a ω-transaminase (protein, listed as Segniliparus rotundus)
chain: MTQSHTQGPQASAAHSRLARRAAELLATDPQAAATLPDPEVVRQATRPGLRLAERVDAILSGYADRPALGQRSFQTVKDPITGRSSVELLPTFDTITYRELRERATAIASDLAHHPQAPAKPGDFLASIGFISVDYVAIDIAGVFAGLTAVPLQTGATLATLTAITAETAPTLFAASIEHLPTAVDAVLATPSVRRLLVFDYRAGSDEDREAVEAAKRKIADAGSSVLVDVLDEVIARGKSAPKAPLPPATDAGDDSLSLLIYTSGSTGTPKGAMYPERNVAHFWGGVWAAAFDEDAAPPVPAINITFLPLSHVASRLSLMPTLARGGLMHFVAKSDLSTLFEDLKLARPTNLFLVPRVVEMLYQHYQSELDRRGVQDGTREAEAVKDDLRTGLLGGRILTAGFGSAPLSAELAGFIESLLQIHLVDGYGSTEAGPVWRDGYLVKPPVTDYKLIDVPELGYFSTDSPHPRGELAIKTQTILPGYYKRPETTAEVFDEDGFYLTGDVVAQIGPEQFAYVDRRKNVLKLSQGEFVTLAKLEAAYSSSPLVRQLFVYGSSERSYLLAVIVPTPDALKKFGVGEAAKAALGESLQKIARDEGLQSYEVPRDFIIETDPFTVENGLLSDARKSLRPKLKEHYGERLEAMYKELADGQANELRDIRRGVQQRPTLETVRRAAAAMLGASAAEIKPDAHFTDLGGDSLSALTFSNFLHDLFEVDVPVGVIVSAANTLGSVAEHIDAQLAGGRARPTFATVHGKGSTTIKASDLTLDKFIDEQTLEAAKHLPKPADPPRTVLLTGANGWLGRFLALEWLERLAPAGGKLITIVRGKDAAQAKARLDAAYESGDPKLAGHYQDLAATTLEVLAGDFSEPRLGLDEATWNRLADEVDFISHPGALVNHVLPYNQLFGPNVAGVAEIIKLAITTRIKPVTYLSTVAVAAGVEPSALDEDGDIRTVSAERSVDEGYANGYGNSKWGGEVLLREAHDRTGLPVRVFRSDMILAHQKYTGQVNATDQFTRLVQSLLATGLAPKSFYELDAQGNRQRAHYDGIPVDFTAESITTLGGDGLEGYRSYNVFNPHRDGVGLDEFVDWLIEAGHPITRIDDYDQWLSRFETSLRGLPESKRQASVLPLLHAFARPGPAVDGSPFRNTVFRTDVQKAKIGAEHDIPHLGKALVLKYADDIKQLGLL
B3: SEQ ID NO. 17: Escherichia coli pimeloyl-[acp] methyl ester esterase (GenBank Accession No. AAC76437.1), C-terminal His-tagged (protein, listed as Escherichia coli)
chain: MNNIWWQTKGQGNVHLVLLHGWGLNAEVWRCIDEELSSHFTLHLVDLPGFGRSRGFGALSLADMAEAVLQQAPDKAIWLGWSLGGLVASQIALTHPERVQALVTVASSPCFSARDEWPGIKPDVLAGFQQQLSDDFQRTVERFLALQTMGTETARQDARALKKTVLALPMPEVDVLNGGLEILKTVDLRQPLQNVSMPFLRLYGYLDGLVPRKVVPMLDKLWPHSESYIFAKAAHAPFISHPAEFCHLLVALKQRV
modifications: C-terminal His tag

Assays:
Type in all cases: biochemical
[1] = Carboxylate reductase activity assay, adipate to adipate semialdehyde; settings: enhanced by gene product of sfp, 2 mM adipate, room temperature, 20 min, vs empty vector control, FIG. 10
Procedure: A nucleotide sequence encoding a HIS-tag was added to the genes from Segniliparus rugosus and Segniliparus rotundus that encode the carboxylate reductases of SEQ ID NOs: 5 and 7, respectively (see FIGS. 7C and 7E), such that N-terminal HIS tagged carboxylate reductases could be produced. Each of the modified genes was cloned into a pET Duet expression vector along with a sfp gene encoding a HIS-tagged phosphopantetheine transferase from Bacillus subtilis, both under the T7 promoter. Each expression vector was transformed into a BL21[DE3] E. coli host and the resulting recombinant E. coli strains were cultivated at 37° C. in a 250 mL shake flask culture containing 50 mL LB media and antibiotic selection pressure, with shaking at 230 rpm. Each culture was induced overnight at 37° C. using an auto-induction media.
The pellet from each induced shake flask culture was harvested via centrifugation. Each pellet was resuspended and lysed via sonication, and the cell debris was separated from the supernatant via centrifugation. […]
Enzyme activity assays (i.e., from adipate to adipate semialdehyde) were performed in triplicate in a buffer composed of a final concentration of 50 mM HEPES buffer (pH=7.5), 2 mM adipate, 10 mM MgCl2, 1 mM ATP and 1 mM NADPH. […] The consumption of NADPH was monitored by absorbance at 340 nm.

[2] = Carboxylate reductase activity assay, adipate semialdehyde to hexanedial; settings: enhanced by gene product of sfp, 2 mM adipate semialdehyde, room temperature, 20 min, vs empty vector control, FIG. 13
Procedure: The N-terminal His-tagged carboxylate reductase of SEQ ID NO 7 (see Example 4 and FIG. 7E) was assayed using adipate semialdehyde as substrate. The enzyme activity assay was performed in triplicate in a buffer composed of a final concentration of 50 mM HEPES buffer (pH=7.5), 2 mM adipate semialdehyde, 10 mM MgCl2, 1 mM ATP and 1 mM NADPH. The enzyme activity assay reaction was initiated by adding purified carboxylate reductase and phosphopantetheine transferase or the empty vector control to the assay buffer containing the adipate semialdehyde and then incubated at room temperature for 20 min. The consumption of NADPH was monitored by absorbance at 340 nm.

[3] = ω-transaminase activity assay, forward direction, adipate semialdehyde to 6-aminohexanoate; settings: cell free extract, 10 mM adipate semialdehyde, 10 mM L-alanine, 25° C., 4 h, vs empty vector control, FIG. 16
Procedure: (§1) A nucleotide sequence encoding a His-tag was added to the genes from Chromobacterium violaceum, Pseudomonas aeruginosa, Pseudomonas syringae, Rhodobacter sphaeroides, and Vibrio fluvialis encoding the ω-transaminases of SEQ ID NOs: 7, 8, 9, 10 and 12, respectively (see FIGS. 7E and 7F) such that N-terminal HIS tagged ω-transaminases could be produced. Each of the resulting modified genes was cloned into a pET21a expression vector under control of the T7 promoter and each expression vector was transformed into a BL21[DE3] E. coli host. The resulting recombinant E. coli strains were cultivated at 37° C. in a 250 mL shake flask culture containing 50 mL LB media and antibiotic selection pressure, with shaking at 230 rpm. Each culture was induced overnight at 16° C. using 1 mM IPTG.
(§2) The pellet from each induced shake flask culture was harvested via centrifugation. Each pellet was resuspended and lysed via sonication. The cell debris was separated from the supernatant via centrifugation and the cell free extract was used immediately in enzyme activity assays.
Enzyme activity in the forward direction (i.e., adipate semialdehyde to 6-aminohexanoate) was confirmed for the transaminases of SEQ ID NO 7, SEQ ID NO 8, SEQ ID NO 9, SEQ ID NO 10 and SEQ ID NO 12. Enzyme activity assays were performed in a buffer composed of a final concentration of 50 mM HEPES buffer (pH=7.5), 10 mM adipate semialdehyde, 10 mM L-alanine and 100 μM pyridoxyl 5′ phosphate. Each enzyme activity assay reaction was initiated by adding a cell free extract of the ω-transaminase gene product or the empty vector control to the assay buffer containing the adipate semialdehyde and incubated at 25° C. for 4 h, with shaking at 250 rpm. The formation of pyruvate was quantified via RP-HPLC.

[4] = ω-transaminase activity assay, reverse direction, 6-aminohexanoate to adipate semialdehyde; settings: cell free extract, 10 mM 6-aminohexanoate, 10 mM pyruvate, 25° C., 24 h, vs empty vector control, FIG. 15
Procedure: as §1, §2
Enzyme activity assays in the reverse direction (i.e., 6-aminohexanoate to adipate semialdehyde) were performed in a buffer composed of a final concentration of 50 mM HEPES buffer (pH=7.5), 10 mM 6-aminohexanoate, 10 mM pyruvate and 100 μM pyridoxyl 5′ phosphate. Each enzyme activity assay reaction was initiated by adding cell free extract of the ω-transaminase gene product or the empty vector control to the assay buffer containing the 6-aminohexanoate and incubated at 25° C. for 24 h, with shaking at 250 rpm. The formation of L-alanine from pyruvate was quantified via RP-HPLC.

[5] = Pimeloyl-[acp] methyl ester methylesterase activity assay, adipyl-CoA methyl ester to adipyl-CoA; settings: 10 μM enzyme, 5 mM adipyl-CoA methyl ester, pH 7.0, 30° C., 1 h, FIG. 20
Procedure: A sequence encoding an C-terminal His-tag was added to the gene from Escherichia coli encoding the pimeloyl-[acp] methyl ester methylesterase of SEQ ID NO: 17 (see FIG. 7G) such that C-terminal HIS tagged pimeloyl-[acp] methyl ester methylesterase could be produced. The resulting modified gene was cloned into a pET28b+ expression vector under control of the T7 promoter and the expression vector was transformed into a BL21[DE3] E. coli host. The resulting recombinant E. coli strain was cultivated at 37° C. in a 500 mL shake flask culture containing 100 mL LB media and antibiotic selection pressure, with shaking at 230 rpm. Each culture was induced overnight at 18° C. using 0.3 mM IPTG.
The pellet from each induced shake flask culture was harvested via centrifugation. Each pellet was resuspended and lysed via sonication. The cell debris was separated from the supernatant via centrifugation. The pimeloyl-[acp] methyl ester methylesterase was purified from the supernatant using Ni-affinity chromatography, buffer exchanged and concentrated into 20 mM HEPES buffer (pH=7.5) via ultrafiltration and stored at 4° C.
Enzyme activity assays converting adipyl-CoA methyl ester to adipyl-CoA were performed in triplicate in a buffer composed of a final concentration of 25 mM Tris.HCl buffer (pH=7.0) and 5 [mM] adipyl-CoA methyl ester. […] The formation of adipyl-CoA was quantified via LC-MS.

Row | ω-transaminase activity for converting 6-aminohexanoate to adipate semialdehyde (formation of L-alanine from pyruvate, RP-HPLC) [4] | Molecule | carboxylate reductase activity for converting adipate to adipate semialdehyde (consumption of NADPH, absorbance at 340 nm) [1] | carboxylate reductase activity for converting adipate semialdehyde to hexanedial (consumption of NADPH, absorbance at 340 nm) [2] | ω-transaminase activity for converting adipate semialdehyde to 6-aminohexanoate (formation of pyruvate, RP-HPLC) [3] | conversion of adipyl-CoA methyl ester to adipyl-CoA by pimeloyl-[acp] methyl ester methylesterase (LC-MS) [5]
1 |  | B1 | accepted adipate as substrate |  |  | 
2 | accepted 6-aminohexanote as substrate | B2 | accepted adipate as substrate | accepted adipate semialdehyde as substrate | accepted adipate semialdehyde as substrate | 
3 |  | B3 |  |  |  | accepted adipyl-CoA methyl ester as substrate
